In the RNAGym collection of RNA variant scans (doi:10.1021/acssynbio.7b00057):

B1: Pistol ribozyme (parent)
chain: GGGUCGUUGUUCCAUAAUCGCGUGGAUAUGGCACGCAAGUUUCUACCGGGCACCGUAAAUGUCCGACUGGAGCCGUUCGGGCGGCUAUAAACAGACCUCAGGCCCGAAGCGUGGCGGCACCUGCCGCCGGUGGUAAAAAAGAUCGGAAGAGCACACGUCU

Variants of: B1
Test: aptazyme ON/OFF ratio, guanine; higher = stronger switching; co-transcriptional cleavage with and without guanine

Aptazyme ON/OFF ratio, 1.28:
U7G G9C U10G U11A C12U C13G
U7G G9C U10A C12G C13U
U7G G9C U10G C12G C13A
U7G G9C U10G U11C C12U

Aptazyme ON/OFF ratio, 1.05:
U7G G9A U10G U11A C12U C13G
U7G G9C U10G U11G C12A
U7G G9A U10C U11C C12U C13A
U7G G9C U10A C12U C13G
U7G G9A U10G U11A C12G C13U
U7G G9A U10G U11A C12A C13G
U7G G9A U10G U11A
U7G G9A U10C U11C C12G C13G

Aptazyme ON/OFF ratio, 1.41:
U7G G9A U11A C12U
U7G G9C U10G C13A
U7G G9C U10A U11G C12G

Aptazyme ON/OFF ratio, 1.24:
U7G G9C U10G C12U C13A
U7G G9C U10G U11A C13U

Aptazyme ON/OFF ratio, 1.11:
U7G G9A U10C U11G C12A C13U
U7G G9A U11G C12U C13G
U7G G9A U10G U11C C12U
U7G G9C U10C U11C C12U C13U
U7G G9C U10A U11A C13G
U7G G9A U10G U11A C12G C13G
U7G G9C U10G C12A C13G
U7G G9A U10G U11C C13G
U7G G9A U11C C12G C13A
U7G G9A U11G C13A

Aptazyme ON/OFF ratio, 1.34:
U7G G9C U10C C12U C13U
U7G G9C U10C U11G C12U C13U
U7G G9A U11C C12A

Aptazyme ON/OFF ratio, 1.15:
U7G G9C U10A U11A C12A C13G
U7G G9C U10C U11A C12A C13G
U7G G9A U10G C12A C13G
U7G G9C U10A U11G C12A
U7G G9A U11C C12U C13A
U7G G9C U10A U11A C12G C13G

Aptazyme ON/OFF ratio, 1.02:
U7G G9A U10C U11C C13U

Aptazyme ON/OFF ratio, 1.39:
U7G G9A U11C C12U

Aptazyme ON/OFF ratio, 1.06:
U7G G9A U11G C12A C13A
U7G G9C U10A U11C C12G C13G
U7G G9A U10C U11G C12G C13G
U7G G9A U10C U11G C12G C13U
U7G G9A U10G U11A C12A C13A

Aptazyme ON/OFF ratio, 1.69:
U7G G9C U10G U11C C12A

Aptazyme ON/OFF ratio, 1.21:
U7G G9C U10C C12U C13A
U7G G9C U10C C12U C13G
U7G G9C U10C U11A C12U C13G
U7G G9A U11A C12G
U7G G9C U10C U11A C12A C13A
U7G G9C U10G U11C C12G C13U
U7G G9C U10A U11C C13A

Aptazyme ON/OFF ratio, 1.1:
U7G G9A U10G U11A C12U C13A
U7G G9A U10C U11G C12A C13G
U7G G9A U10G U11C C12G
U7G G9A U11A C13G
U7G G9C U10A C12G C13A
U7G G9C U10A C12G C13G
U7G G9A U10C U11C C12G C13A
U7G G9A U11G C13G

Aptazyme ON/OFF ratio, 1.08:
U7G G9A U10G U11C C12U C13A
U7G G9A U10G U11C C12U C13G
U7G G9A U10G C12A C13U
U7G G9A U10G C12A C13A
U7G G9A U10G U11C C13U
U7G G9A U10G U11C C13A
U7G G9C U10C U11G C12A C13U

Aptazyme ON/OFF ratio, 1.07:
U7G G9A U11G C12A C13G
U7G G9A U11G C12A C13U
U7G G9A U10G U11A C12U C13U
U7G G9A U10C U11G C12A C13A
U7G G9C U10C U11C C12U C13G
U7G G9A U10C U11C C12U C13U
U7G G9C U10A C12U C13U
U7G G9C U10G U11C C12G C13G
U7G G9A U11C C12G C13G

Aptazyme ON/OFF ratio, 1.29:
U7G G9C U10A U11C C12G C13U
U7G G9C U10A U11A C12A C13U
U7G G9C C13A

Aptazyme ON/OFF ratio, 1.14:
U7G G9C U10C C13A
U7G G9A U10C U11G C13U
U7G G9A U11A C13A
U7G G9A U10G C12U
U7G G9C C13G
U7G G9C U10A U11C C13U
U7G G9C U10A U11A C12G C13A

Aptazyme ON/OFF ratio, 1.25:
U7G G9C U10C U11A C12A C13U
U7G G9C U10G C12A C13U

Aptazyme ON/OFF ratio, 1.12:
U7G G9A U10G U11C C12A
U7G G9A U11A C12A
U7G G9A U10G U11A C12G C13A

Aptazyme ON/OFF ratio, 1.79:
U7G G9C C12U

Aptazyme ON/OFF ratio, 1.65:
U7G G9C U10G C12A

Aptazyme ON/OFF ratio, 1.64:
U7G G9A U11G

Aptazyme ON/OFF ratio, 1.04:
U7G G9A U10C U11C C12U C13G
U7G G9A U10G U11C
U7G G9A U10C U11C C13A

Aptazyme ON/OFF ratio, 1.19:
U7G G9A U11A C12U C13U
U7G G9C U10C U11G C13A
U7G G9A U11C C12U C13G

Aptazyme ON/OFF ratio, 1.3:
U7G G9C C12U C13A
U7G G9C C12G C13A
U7G G9A U11C C12U C13U

Aptazyme ON/OFF ratio, 1.16:
U7G G9C U10A U11C C12G C13A
U7G G9C U10G U11A C13G
U7G G9A U11A C12U C13A
U7G G9A U11G C13U

Aptazyme ON/OFF ratio, 1.13:
U7G G9C U10C U11A C12G C13A
U7G G9C U10G C12U C13U
U7G G9A U11C C12G C13U
U7G G9C U10C U11G C12A C13G

Aptazyme ON/OFF ratio, 2.46:
U7G G9A U11A

Aptazyme ON/OFF ratio, 2.85:
U7G G9C

Aptazyme ON/OFF ratio, 1.23:
U7G G9C U10G U11A C12U C13U
U7G G9C U10G C13G
U7G G9C U10G C12A C13A

Aptazyme ON/OFF ratio, 1.2:
U7G G9C U10C U11A C12G C13G
U7G G9A U11G C12U C13U
U7G G9A U11A C13U

Aptazyme ON/OFF ratio, 1.09:
U7G G9A U11G C12U C13A
U7G G9A U10C U11G C12G C13A
U7G G9C U10C C13G
U7G G9A U10C U11G C13A
U7G G9A U10G U11C C12U C13U
U7G G9C U10A C12U C13A
U7G G9A U10G C12A
U7G G9A U10G C12G
U7G G9A U10G U11A C12A C13U
U7G G9A U10G U11G
U7G G9C U10C U11G C12A C13A
U7G G9C U10A U11C C13G

Aptazyme ON/OFF ratio, 1.33:
U7G G9C C12U C13U
U7G G9C U10C U11G C12U C13A

Aptazyme ON/OFF ratio, 1.51:
U7G G9C U10G C12G

Aptazyme ON/OFF ratio, 1.47:
U7G G9C U10C C13U

Aptazyme ON/OFF ratio, 1.26:
U7G G9C U10C U11G C12U C13G
U7G G9C C12G C13G

Aptazyme ON/OFF ratio, 1.38:
U7G G9C U10G C12U C13G
U7G G9C U10G C12U

Aptazyme ON/OFF ratio, 1.18:
U7G G9C U10G U11A C13A
U7G G9C U10C U11A C12U C13A
U7G G9C C12U C13G
U7G G9C U10G C12G C13G

Aptazyme ON/OFF ratio, 1.03:
U7G G9C U10C U11C C12U C13A
U7G G9A U10C U11C C12G C13U
U7G G9A U10C U11C C13G

Aptazyme ON/OFF ratio, 1.31:
U7G G9C U10C U11A C12G C13U
U7G G9C U10A U11A C13A
U7G G9C U10G C12G C13U

Aptazyme ON/OFF ratio, 1.43:
U7G G9C C12G C13U
U7G G9C U10A U11G C12U

Aptazyme ON/OFF ratio, 1.17:
U7G G9A U11C
U7G G9C U10G U11A C12U C13A
U7G G9A U10C U11G C13G
U7G G9A U11A C12U C13G
U7G G9C U10C U11G C13G

Aptazyme ON/OFF ratio, 1.36:
U7G G9C U10A U11A C12A C13A
U7G G9C U10G C13U

Aptazyme ON/OFF ratio, 1.99:
U7G G9C C12A

Aptazyme ON/OFF ratio, 1.32:
U7G G9C U10C U11A C12U C13U
U7G G9C U10G U11C C12G

Aptazyme ON/OFF ratio, 1.27:
U7G G9C U10G U11C C12G C13A
U7G G9A U11C C12G
U7G G9C U10C U11G C13U
U7G G9C U10A U11A C12G C13U

Aptazyme ON/OFF ratio, 1.91:
U7G G9C C12G

Aptazyme ON/OFF ratio, 1.45:
U7G G9C U10A U11A C13U
U7G G9C C13U
